Here are results for three molecules from paper PMC9307952 (The Journal of Biological Chemistry, 2022).

In test [1] the target is T1, E. coli LipBK135A/C169A (catalytically inactive double mutant of lipoate protein ligase B) (E. coli, UniProt P60720 1-213, K135A | C169A). Description: SPR; LipBK135A/C169A immobilised on an activated gold sensor surface (Autolab ESPRIT), increasing concentrations of ACP passed over; 20 mM sodium phosphate pH 8.0, 100 mM NaCl, 298 K; global fit of five injections, 1:1 Langmuir model. The note with it: both partners purified. (In general: Surface plasmon resonance follows binding to a sensor surface in real time, without labels.)

Test [2] addresses T1, E. coli LipBK135A/C169A (catalytically …). As to the kind of experiment: SPR; apparent (binding curve did not reach saturation for holo-ACP); LipBK135A/C169A immobilised on an activated gold sensor surface (Autolab ESPRIT), increasing concentrations of ACP passed over; 20 mM sodium phosphate pH 8.0, 100 mM NaCl, 298 K; global fit of five injections, 1:1 Langmuir model. The note with it: both partners purified.

B1: E. coli C8-ACP (octanoyl-acyl carrier protein), SPR sample (natural protein)
chain: STIEERVKKIIGEQLGVKQEEVTNNASFVEDLGADSLDTVELVMALEEEFDTEIPDEEAEKITTVQAAIDYINGHQA
modifications: octanoyl (C8) chain on a 4'-phosphopantetheine arm (residue not stated)
On to B1, for which the Kd in test [1] worked out at 36.4 µM.

B2: E. coli apo-ACP (unmodified acyl carrier protein), SPR sample (natural protein)
chain: STIEERVKKIIGEQLGVKQEEVTNNASFVEDLGADSLDTVELVMALEEEFDTEIPDEEAEKITTVQAAIDYINGHQA
On to B2, for which the Kd in test [2] came to 2100 µM.

B3: E. coli holo-ACP (acyl carrier protein with 4'-phosphopantetheine), SPR sample (natural protein)
chain: STIEERVKKIIGEQLGVKQEEVTNNASFVEDLGADSLDTVELVMALEEEFDTEIPDEEAEKITTVQAAIDYINGHQA
modifications: 4'-phosphopantetheine arm (residue not stated)
On to B3, for which, in test [2], the Kd is 100 µM.
